Legend:
[1] = system: SK-MEL-28 melanoma tumors; experiment: Intratumoral pharmacokinetics, in vivo imaging of Sulfo-Cy7 tagged protein after IT injection, tumor type 1; parameters: species or system athymic nude mice
Method: FIG. 2A-2C show results of intra-tumoral administration in xenografts in mice. […] The intra-tumoral half-lives were calculated using exponential decay fits of region of interest (ROI) radiant efficiency of infrared-tagged treatment peptides over 168 hours. […] The intra-tumoral half-lives were calculated using exponential decay fits of ROI radiant efficiency of infrared-tagged treatment peptides over 264 hours.
Mouse tumor models for evaluating the clearance rate of proteins from solid tumors were used to measure the intratumoral (IT) half-life of MVPs to maximize the parameters for tumor retention. Antibodies tagged using the amine-reactive Sulfo-Cy7 NHS ester (Broadpharm Cat #BP-22541) near-infrared fluorophore by the following method were used. This method was conducted under aseptic conditions. First, the dye was dissolved DMSO at 10 mg/mL concentration. Then, the protein at 5.0-10.0 mg/mL concentration was mixed with 0.1 M sodium bicarbonate at a 3:2 vol:vol ratio. Lastly, the fluorophore was added at a 1:2 protein:fluorophore molar ratio, mixed well, and incubated at room temperature for one hour on a neutator protected from the light by covering with foil. The NHS esters were quenched by adding 1.5 M Tris buffer pH 8.5 at 10% of the reaction volume and mixed on a neutator for another 10 minutes. The tagged protein was purified away from the unreacted fluorophore using a NAP-10 desalting column (illustra Cat #17-0854-01) that was equilibrated with PBS pH 7.0+0.01% Tween-20 according to the manufacturer's directions. The protein concentration and degree of Cy7 labeling was determined by the absorbance at 280 and 750 nm. […]
Tumors were established by injecting 3×10^6 SK-MEL-28 cells mixed 1:1 with Matrigel (Corning Cat #354234) in a 0.1 mL volume subcutaneously into the right flank of 8 week old athymic nude mice (Table 6). The tumor size was monitored until it reached a size of […]. […] When the study concluded, the half-life of each treatment was determined following injection using exponential decay calculations for optical in vivo imaging (Table 7).

[2] = system: MDA-MB-231 breast cancer tumors; parameters: species or system nude mice; details: mouse, in vivo
[3] = target: T1, Human VEGF 165 (human, UniProt P15692-4 27-191, Avi tag (as printed under Tags); the tag's sequence and place are not given); experiment: BLI (Gator), Avi-tagged human VEGF 165 on the probe, conjugate as analyte, 1:1 global fit; 90.5 kDa CMC, valency 9, 48.41 percent unconjugated peptide
T1 construct: Bought reagent loaded on the BLI probes as ligand; VEGF165 is one isoform of it; also called BLI ligand, Avi tag, R&D Systems AVI-293-050
Method: (§1) Either one or two probes per sample (one for kinetic assay and one for ligand free control if used) were equilibrated in 250 μL BLI buffer (PBS pH 7.4, 0.2% Tween and 0.2% BSA filtered at 0.2 μm) for at minimum 10 min in a Gator Bio Max plate. Ligands were diluted to a fixed concentration of 25-100 nM based on performance in pilot reactions in BLI buffer. Analytes were prepared at the top concentration determined in pilot reactions in BLI buffer and serially diluted 1:3 two to five more times using BLI buffer (Table 3). Black flat-bottom non-coated 96 well plates (Greiner Bio One Cat #655209 or similar) were loaded column-wise with 200 μL of ligand, analyte dilutions and one column of BLI buffer for each column of ligand and analyte. One well in each column of analyte was BLI buffer to be used as a blank for reference subtraction. The sample plate was placed in the Gator on a tilted platform set to 25° C. […] Next, the kinetic reads were started using the step parameters. If a ligand-free control was conducted, when kinetic reads were complete with ligand-loaded probes, the ligand free control was run using new probes that were not loaded with the ligand. The same kinetic assay timing and same sample wells were used that were analyzed with ligand loaded probes.
(§2) When kinetic assay was complete, data was analyzed using the Gator software. […]

[4] = target: T1, Human VEGF 165; experiment: BLI (Gator), Avi-tagged human VEGF 165 on the probe, conjugate as analyte, 1:1 global fit; 250 kDa CMC, valency 21, 44.37 percent unconjugated peptide
Method: as §1, §2

T1 sequence (P15692 other isoform, or with tags, fused parts or gaps limits assumed): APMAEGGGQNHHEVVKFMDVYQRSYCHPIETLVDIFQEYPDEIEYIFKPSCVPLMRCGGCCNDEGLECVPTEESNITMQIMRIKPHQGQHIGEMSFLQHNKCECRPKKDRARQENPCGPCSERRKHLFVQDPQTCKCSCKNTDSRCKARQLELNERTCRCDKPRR

B1: Conjugate 110: Anti-VEGF DARPin (SEQ ID NO: 1) conjugated to 700 kDa CMC, MP2H linker, valency 20 (conjugate)
chain: SNAGSDLDKKLLEAARAGQDDEVRILMANGADVNARDSTGWTPLHLAAPWGHPEIVEVLLKNGADVNAADFQGWTPLHLAAAVGHLEIVEVLLKYGADVNAQDKFGKTAFDISIDNGNEDLAEILQKAAGGGSGGGSC
modifications: conjugated to 700 kDa CMC via MP2H linker; aVEGF_Gly_Cys DARPin
IT half-life compared with unconjugated anti-VEGF DARPin and other conjugate (in words) ([1]; mouse, in vivo): longer than that of the unconjugated anti-VEGF DARPin or the peptide conjugated to a 90 kDa CMC | Intratumoral t1/2 ([1]; mouse, in vivo): 48.7 ± 24.7 h

B2: Unconjugated: Unconjugated Sulfo-Cy7 tagged anti-VEGF DARPin (SEQ ID NO: 1), comparator for the conjugates (protein)
chain: SNAGSDLDKKLLEAARAGQDDEVRILMANGADVNARDSTGWTPLHLAAPWGHPEIVEVLLKNGADVNAADFQGWTPLHLAAAVGHLEIVEVLLKYGADVNAQDKFGKTAFDISIDNGNEDLAEILQKAAGGGSGGGSC
modifications: Sulfo-Cy7 label; aVEGF_Gly_Cys DARPin
Intratumoral t1/2 [2]: 15.1 ± 9.8 h

B3: Conjugate 111: Anti-VEGF DARPin (SEQ ID NO: 1) conjugated to 90 kDa CMC, EMCH linker, valency 34 (conjugate)
chain: SNAGSDLDKKLLEAARAGQDDEVRILMANGADVNARDSTGWTPLHLAAPWGHPEIVEVLLKNGADVNAADFQGWTPLHLAAAVGHLEIVEVLLKYGADVNAQDKFGKTAFDISIDNGNEDLAEILQKAAGGGSGGGSC
modifications: 90 kDa CMC via EMCH linker; aVEGF_Gly_Cys DARPin
Intratumoral t1/2 ([1]; Tumor type 1 (SK-MEL-28 melanoma xenograft), 40 μL IT injection, exponential decay fit of ROI radiant efficiency over 168 hours): 18.0 ± 3.4 h

B4: Conjugate 109: Anti-VEGF DARPin (SEQ ID NO: 1) conjugated to 830 kDa HyA, MP2H linker, valency 34 (conjugate)
chain: SNAGSDLDKKLLEAARAGQDDEVRILMANGADVNARDSTGWTPLHLAAPWGHPEIVEVLLKNGADVNAADFQGWTPLHLAAAVGHLEIVEVLLKYGADVNAQDKFGKTAFDISIDNGNEDLAEILQKAAGGGSGGGSC
modifications: conjugated to 830 kDa HyA via MP2H linker; aVEGF_Gly_Cys DARPin
Intratumoral t1/2 [2]: 20.5 ± 7.0 h

B5: Conjugate 101: Anti-VEGF DARPin (SEQ ID NO: 1) conjugated to 700 kDa CMC, MP2H linker, valency 13 (conjugate)
chain: SNAGSDLDKKLLEAARAGQDDEVRILMANGADVNARDSTGWTPLHLAAPWGHPEIVEVLLKNGADVNAADFQGWTPLHLAAAVGHLEIVEVLLKYGADVNAQDKFGKTAFDISIDNGNEDLAEILQKAAGGGSGGGSC
modifications: conjugated to 700 kDa CMC via MP2H linker; aVEGF_Gly_Cys DARPin
IT half-life compared with unconjugated anti-VEGF DARPin and other conjugate (in words) [2]: longer than that of the unconjugated anti-VEGF DARPin or the peptide conjugated to a 830 kDa hyaluronic acid (HyA) | Intratumoral t1/2 [2]: 101.2 ± 34.9 h

B6: Conjugate 114: Anti-VEGF VHH (SEQ ID NO: 8) conjugated to 90.5 kDa CMC, valency 9 (other)
VHH: MQVQLVESGGGLVQPGGSLRLSCAASGFAYSTYSMGWFRQAPGKEREAVATINSGTFRLWYTDSVKGRFTISRDNSKNTLYLQMNSLRPEDTAVYYCAARAWSPYSSTVDAGDFRYWGQGTLVTVSSAEAAAKEAAAKEAAAKAGC
modifications: C-terminal Cys thiol linked through a hydrazide-PEG2-maleimide linker to 90.5 kDa carboxymethyl cellulose
notes: Multivalent peptide-polymer conjugate; valency 9 is the mean molar ratio of peptide to polymer; also called anti-VEGF MVP
Kd [3]: 966 pM

B7: Conjugate 115: Anti-VEGF VHH (SEQ ID NO: 8) conjugated to 250 kDa CMC, valency 21 (other)
VHH: MQVQLVESGGGLVQPGGSLRLSCAASGFAYSTYSMGWFRQAPGKEREAVATINSGTFRLWYTDSVKGRFTISRDNSKNTLYLQMNSLRPEDTAVYYCAARAWSPYSSTVDAGDFRYWGQGTLVTVSSAEAAAKEAAAKEAAAKAGC
modifications: C-terminal Cys thiol linked through a hydrazide-PEG2-maleimide linker to 250 kDa carboxymethyl cellulose
notes: Multivalent peptide-polymer conjugate; valency 21 is the mean molar ratio of peptide to polymer; also called anti-VEGF MVP
Kd [4]: 583 pM

Source: US20250213704A1, “METHOD OF TREATING A CANCER WITH A MULTIVALENT PEPTIDE CONJUGATE” (Valitor, Inc, priority 2022, published 2025)
